Among the data in patent US20250368745A1 (published 2025) are Kd values, retold here.

T1: human IL-18BP (human, UniProt O95998 31-194)
T1 construct: UniProt printed as 095998; also called hIL-18BP
T1 sequence: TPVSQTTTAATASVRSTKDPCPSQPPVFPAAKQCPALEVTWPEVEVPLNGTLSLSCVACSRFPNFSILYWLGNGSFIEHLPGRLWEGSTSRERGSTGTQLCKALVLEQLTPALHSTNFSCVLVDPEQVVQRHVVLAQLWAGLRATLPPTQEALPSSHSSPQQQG

T2: human IL-18BP (human, UniProt O95998 31-194)
T2 construct: also called hIL-18BP; Mature Human Isoform A
T2 sequence: T1 sequence

B1: SA301a HC-Y96R (antibody, name in Kabat numbering, V domains shown)
VH: QVQLQESGPGLVKPSQTLSLTCTVSGYSITSDYNSHWIRQPPGKGLEWIGYIHYSGSTNYNPSLKSRVTISRDTSKNQFSLKLSSVTAADTAVYYCARNRGSIYVNYFDYWGQGTLVTVSS
VL: EIVLTQSPATLSLSPGERATLSCSASSSVSYMYWYQQKPGQAPRPLIYRTSNLASGIPARFSGSGSGTDFTLTISSLEPEDFAVYYCQQYHSYPTFGGGTKVEIK
notes: IgG1 kappa
B2: SA301a HC-Y96I (antibody, name in Kabat numbering, V domains shown)
VH: B1 VH with R100I
VL: B1 VL
notes: IgG1 kappa
B3: SA301a HC-Y96F (antibody, name in Kabat numbering, V domains shown)
VH: B1 VH with R100F
VL: B1 VL
notes: IgG1 kappa
B4: SA301a HC-S98P (antibody, name in Kabat numbering, V domains shown)
VH: B1 VH with R100Y, S102P
VL: B1 VL
notes: IgG1 kappa
B5: SA301a HC-Y96V (antibody, name in Kabat numbering, V domains shown)
VH: B1 VH with R100V
VL: B1 VL
notes: IgG1 kappa
B6: SA301a HC-S98T (antibody, name in Kabat numbering, V domains shown)
VH: B1 VH with R100Y, S102T
VL: B1 VL
notes: IgG1 kappa
B7: SA301a HC-Y96H (antibody, name in Kabat numbering, V domains shown)
VH: B1 VH with R100H
VL: B1 VL
notes: IgG1 kappa
B8: SA301a HC-Y96E (antibody, name in Kabat numbering, V domains shown)
VH: B1 VH with R100E
VL: B1 VL
notes: IgG1 kappa
B9: SA301a HC-Y96L (antibody, name in Kabat numbering, V domains shown)
VH: B1 VH with R100L
VL: B1 VL
notes: IgG1 kappa
B10: SA301a HC-Y96P (antibody, name in Kabat numbering, V domains shown)
VH: B1 VH with R100P
VL: B1 VL
notes: IgG1 kappa
B11: SA301a HC-S98Q (antibody, name in Kabat numbering, V domains shown)
VH: B1 VH with R100Y, S102Q
VL: B1 VL
notes: IgG1 kappa
B12: SA301a HC-S98Y (antibody, name in Kabat numbering, V domains shown)
VH: B1 VH with R100Y, S102Y
VL: B1 VL
notes: IgG1 kappa
B13: SA301a HC-Y96A (antibody, name in Kabat numbering, V domains shown)
VH: B1 VH with R100A
VL: B1 VL
notes: IgG1 kappa
B14: SA301a HC-Y96G (antibody, name in Kabat numbering, V domains shown)
VH: B1 VH with R100G
VL: B1 VL
notes: IgG1 kappa
B15: SA301a HC-Y96Q (antibody, name in Kabat numbering, V domains shown)
VH: B1 VH with R100Q
VL: B1 VL
notes: IgG1 kappa
B16: SA301a HC-Y96T (antibody, name in Kabat numbering, V domains shown)
VH: B1 VH with R100T
VL: B1 VL
notes: IgG1 kappa
B17: SA301a HC-Y96N (antibody, name in Kabat numbering, V domains shown)
VH: B1 VH with R100N
VL: B1 VL
notes: IgG1 kappa
B18: SA301a HC-S98N (antibody, name in Kabat numbering, V domains shown)
VH: B1 VH with R100Y, S102N
VL: B1 VL
notes: IgG1 kappa
B19: SA301a HC-Y96S (antibody, name in Kabat numbering, V domains shown)
VH: B1 VH with R100S
VL: B1 VL
notes: IgG1 kappa
B20: SA301a HC-Y96K (antibody, name in Kabat numbering, V domains shown)
VH: B1 VH with R100K
VL: B1 VL
notes: IgG1 kappa
B21: SA301a light chain variant V29T (antibody, V domains shown)
VH: B1 VH with R100Y
VL: B1 VL with V29T
B22: SA301a light chain variant S28Y (antibody, V domains shown)
VH: B1 VH with R100Y
VL: B1 VL with S28Y
B23: SA301a light chain variant S27D (antibody, V domains shown)
VH: B1 VH with R100Y
VL: B1 VL with S27D
B24: SA301a light chain variant S27P (antibody, V domains shown)
VH: B1 VH with R100Y
VL: B1 VL with S27P
B25: SA301a light chain variant S27M (antibody, V domains shown)
VH: B1 VH with R100Y
VL: B1 VL with S27M
B26: SA301a light chain variant V29E (antibody, V domains shown)
VH: B1 VH with R100Y
VL: B1 VL with V29E
B27: SA301a light chain variant S30L (antibody, V domains shown)
VH: B1 VH with R100Y
VL: B1 VL with S30L
B28: SA301a light chain variant S27K (antibody, V domains shown)
VH: B1 VH with R100Y
VL: B1 VL with S27K
B29: SA301a light chain variant V29P (antibody, V domains shown)
VH: B1 VH with R100Y
VL: B1 VL with V29P
B30: SA301a light chain variant S27G (antibody, V domains shown)
VH: B1 VH with R100Y
VL: B1 VL with S27G
B31: SA301a light chain variant S27L (antibody, V domains shown)
VH: B1 VH with R100Y
VL: B1 VL with S27L
B32: SA301a light chain variant S27Y (antibody, V domains shown)
VH: B1 VH with R100Y
VL: B1 VL with S27Y
B33: SA301a light chain variant S28F (antibody, V domains shown)
VH: B1 VH with R100Y
VL: B1 VL with S28F
B34: SA301a light chain variant S30D (antibody, V domains shown)
VH: B1 VH with R100Y
VL: B1 VL with S30D
B35: SA301a light chain variant S28H (antibody, V domains shown)
VH: B1 VH with R100Y
VL: B1 VL with S28H
B36: SA301a light chain variant S27Q (antibody, V domains shown)
VH: B1 VH with R100Y
VL: B1 VL with S27Q
B37: SA301a light chain variant V29Q (antibody, V domains shown)
VH: B1 VH with R100Y
VL: B1 VL with V29Q
B38: SA301a light chain variant S27H (antibody, V domains shown)
VH: B1 VH with R100Y
VL: B1 VL with S27H
B39: SA301a light chain variant S28N (antibody, V domains shown)
VH: B1 VH with R100Y
VL: B1 VL with S28N
B40: SA301a light chain variant S30F (antibody, V domains shown)
VH: B1 VH with R100Y
VL: B1 VL with S30F
B41: SA301a light chain variant S27A (antibody, V domains shown)
VH: B1 VH with R100Y
VL: B1 VL with S27A
B42: SA301a light chain variant S27R (antibody, V domains shown)
VH: B1 VH with R100Y
VL: B1 VL with S27R
B43: SA301a light chain variant S27I (antibody, V domains shown)
VH: B1 VH with R100Y
VL: B1 VL with S27I
B44: SA301a light chain variant S28D (antibody, V domains shown)
VH: B1 VH with R100Y
VL: B1 VL with S28D

Changes are numbered by the printed parent chain. Names may count otherwise.

The target in one test is T1, human IL-18BP. In words: BLI, apparent KD. In general terms: In BLI a coated tip is dipped into the sample, and binding shifts an interference pattern.
As to B1, the Kd was 0.6 nM. On to B2, for which the Kd worked out at 4.02 nM.

As to B3, the Kd amounted to 0.13 nM. On the same count and under the same terms, with B4 the figure was 0.55 nM; with B5, 1.68 nM; with B6, 26.9 nM. Still for that read-out and setting: in the case of B7 it was 1.24 nM. The same measure, in the same setting: with B8 the figure was 0.31 nM.

In the case of B9, the Kd was determined as 1.08 nM. On the same count and under the same terms, in the case of B10 it was 0.46 nM; in that of B11, 12.3 nM.

With B12, the Kd came to 0.02 nM. The same measure, in the same setting: in the case of B13 it was 0.47 nM; in that of B14, 2.5 nM. Still for that read-out and setting: in the case of B15 it was 0.65 nM. Still for that read-out and setting: in the case of B16 it was 0.61 nM; in that of B17, 2.8 nM; in that of B18, 2.98 nM.

As to B19, the Kd stood at 0.87 nM. Still for that read-out and setting: with B20 the figure was 15.2 nM.

In a further test the target is T2, human IL-18BP. Nature of the test: BLI, apparent KD, one conc.
B21: the Kd came to 0.32 nM. Regarding B22, the Kd came out at 0.47 nM. With B23, the Kd came to 0.43 nM. Same read-out and setting: in the case of B24 it was 0.45 nM; in that of B25, 0.63 nM; in that of B26, 0.34 nM.

As for B27, the Kd came to 0.49 nM. Same read-out and setting: with B28 the figure was 0.52 nM; with B29, 0.38 nM.

For B30, the Kd is 0.49 nM. Still for that read-out and setting: with B31 the figure was 0.44 nM; with B32, 0.37 nM; with B33, 0.46 nM. Same read-out and setting: with B34 the figure was 0.31 nM; with B35, 0.44 nM; with B36, 0.43 nM.

Take B37: the Kd turned out to be 0.3 nM.

Take B38: the Kd came to 0.53 nM. For B39, the Kd worked out at 0.45 nM. Same read-out and setting: in the case of B40 it was 0.35 nM. On the same count and under the same terms, in the case of B41 it was 0.47 nM; in that of B42, 0.45 nM. The same measure, in the same setting: in the case of B43 it was 0.5 nM; in that of B44, 0.42 nM.
